Assay [1] has as its target T1, human MAdCAM expressed on cells (human, UniProt Q13477 19-382).
T1 construct: whole, on cells; also called MADCAM1
T1 sequence (looked up): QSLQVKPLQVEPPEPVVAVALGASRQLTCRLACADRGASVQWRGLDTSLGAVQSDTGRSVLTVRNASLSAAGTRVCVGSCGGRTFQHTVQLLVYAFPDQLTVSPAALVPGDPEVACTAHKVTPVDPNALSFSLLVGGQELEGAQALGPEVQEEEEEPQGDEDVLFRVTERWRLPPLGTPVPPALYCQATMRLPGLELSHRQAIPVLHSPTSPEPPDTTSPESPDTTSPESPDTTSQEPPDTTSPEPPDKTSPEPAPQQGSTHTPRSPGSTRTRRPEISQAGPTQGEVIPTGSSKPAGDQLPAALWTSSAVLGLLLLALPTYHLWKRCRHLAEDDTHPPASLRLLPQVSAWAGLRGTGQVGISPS
Description: cell binding.

Assay [2] has as its target T2, mouse MAdCAM expressed on cells (mouse, UniProt Q61826 22-405).
T2 construct: whole, on cells
T2 sequence (looked up): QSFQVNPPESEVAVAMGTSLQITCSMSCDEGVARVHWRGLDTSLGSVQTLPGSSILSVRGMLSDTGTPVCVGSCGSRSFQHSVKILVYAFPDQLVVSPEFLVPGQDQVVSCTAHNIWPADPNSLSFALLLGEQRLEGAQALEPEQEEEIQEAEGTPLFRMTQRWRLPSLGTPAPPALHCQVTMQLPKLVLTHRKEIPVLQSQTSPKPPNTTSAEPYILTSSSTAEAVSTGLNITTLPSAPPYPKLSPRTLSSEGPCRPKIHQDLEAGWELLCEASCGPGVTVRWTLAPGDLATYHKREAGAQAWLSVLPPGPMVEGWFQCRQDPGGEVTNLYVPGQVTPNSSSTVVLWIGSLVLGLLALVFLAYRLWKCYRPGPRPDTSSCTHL
Kind of assay: cell binding.

B1: MAdCAM Antibody Table 1 Clone 42 (scFv)
scFv: QVQLVQSGAEVKKPGSSVKVSCKASGGTLSRYGVSWVRQAPGQGLEWMGGIIPIFGTTNYAQKFQGRVTITADESTSTAYMELSSLRSEDTAVYYCARDRVYYDSSGYPTWYFDLWGRGTLVTVSSGGGGSGGGGSGGGGSGGGGSEIVMTQSPATLSVSPGERATLSCRASQSVSSSYLAWYQQKPGQAPRLLIYGASTRATGIPARFSGSGSGTEFTLTISSLQSEDFAVYYCQQYGSSPITFGQGTKVEIK
Turning to B1, the binding result in assay [1] is recorded as “binds”; in assay [2], “no binding”.

B2: MAdCAM Antibody Table 1 Clone 39 (scFv)
scFv: QVQLVQSGAEVKKPGASVKVSCKASGYTFTSYYMHWVRQAPGQGLEWMGWMNPNSGNTGYAQKFQGRVTMTRDTSTSTVYMELSSLRSEDTAVYYCARDLGYYDSSGYFGAFDIWGQGTTVTVSSGGGGSGGGGSGGGGSGGGGSDIQMTQSPSSLSASVGDRVTITCQSSEDISSSLNWYQQKPGKAPKLLIYAASSLQIGVPSRFSGSGSGTDFTLTISSLQPEDFATYYCQQTYSTPYTFGQGTKVEIK
With B2, the binding result was “binds” in assay [1] and “no binding” in assay [2].

B3: MAdCAM Antibody Table 1 Clone 51 (scFv)
scFv: EVQLLESGGGLVQPGGSLRLSCAASGFTFNNYGMNWVRQAPGKGLEWVSRINSDGSSTSYADSVKGRFTISRDNSKNTLYLQMNSLRAEDTAVYYCARGAYYYYYMDVWGQGTLVTVSSGGGGSGGGGSGGGGSGGGGSEIVMTQSPATLSVSPGERATLSCRASQSVSGSYLAWYQQKPGQAPRLLIYATSSRASGIPARFSGSGSGTEFTLTISSLQSEDFAVYYCQQYYSGLTFGQGTKVEIK
In the case of B3, the binding result is listed as “binds” in assay [1] and “no binding” in assay [2].

B4: MAdCAM Antibody Table 1 Clone 49 (scFv)
scFv: QVQLVQSGAEVKKPGASVKVSCKASGDTFTGYYIHWVRQAPGQGLEWMGWINPNSGGTNYAQKFQGRVTMTRDTSTSTVYMELSSLRSEDTAVYYCARSGLWLGSYYGMDVWGQGTLVTVSSGGGGSGGGGSGGGGSGGGGSDIQMTQSPSSLSASVGDRVTITCRASQTISIWLAWYQQKPGKAPKLLIYDASTLQSGVPSRFSGSGSGTDFTLTISSLQPEDFATYYCQQYSSYPLTFGQGTKVEIK
For B4, the binding result is “binds” in assay [1] and “no binding” in assay [2].

B5: MAdCAM Antibody Table 1 Clone 44 (scFv)
scFv: EVQLVESGGGLVKPGGSLRLSCAASGFTFSSYWMSWVRQAPGKGLEWVSAIGTGGGTYYAAPVKGRFTISRDDSKNTLYLQMNSLKTEDTAVYYCAREWLVPYYGMDVWGQGTTVTVSSGGGGSGGGGSGGGGSGGGGSDIQMTQSPSSLSASVGDRVTITCRASQSISRWLAWYQQKPGKAPKLLIYGASNLQSGVPSRFSGSGSGTDFTLTISSLQPEDFATYYCQQSYSTPWTFGQGTKVEIK
B5: the binding result in assay [1] was “binds”; in assay [2] it was “no binding”.

B6: MAdCAM Antibody Table 1 Clone 38 (scFv)
scFv: EVQLLESGGGLVQPGGSLRLSCAASGFTFGSYSMSWVRQAPGKGLEWVSAIGTGGGTYYADSVKGRFTISRDNSKNTLYLQMNSLRAEDTAVYYCAKGTPYYYYYGMDVWGQGTMVTVSSGGGGSGGGGSGGGGSGGGGSDIQMTQSPSSLSASVGDRVTITCRASQPLSNWLAWYQQKPGKAPKLLIYAASSLQSGVPSRFSGSGSGTDFTLTISSLQPEDFATYYCQQAISFPLTFGGGTKVEIK
On to B6, for which the figures for the binding result in assay [1] and in assay [2] were “binds” and “no binding”, respectively.

B7: MAdCAM Antibody Table 1 Clone 45 (scFv)
scFv: EVQLLESGGGLVQPGGSLRLSCAASGFSVSSNYMSWVRQAPGKGLEWVAGISYDGSSKPYADSVKGRFTISRDNSKNTLYLQMNSLRAEDTAVYYCARSRGIAARPLQHWGQGTLVTVSSGGGGSGGGGSGGGGSGGGGSDIVMTQSPDSLAVSLGERATINCKSSQSVLYSSNNKNYLAWYQQKPGQPPKLLIYWASTRQSGVPDRFSGSGSGTDFTLTISSLQAEDVAVYYCHQYYGHPPTFGGGTKVEIK
Turning to B7, the binding result in assay [1] was “binds”; in assay [2] it was “no binding”.

B8: MAdCAM Antibody Table 1 Clone 46 (scFv)
scFv: EVQLLESGGGLVQPGGSLRLSCAASGFSVSSNYMSWVRQAPGKGLEWVAGISYDGSSKPYADSVKGRFTISRDNSKNTLYLQMNSLRAEDTAVYYCARSRGIAARPLQHWGQGTLVTVSSGGGGSGGGGSGGGGSGGGGSDIVMTQSPDSLAVSLGERATINCKSSQSVLYSSNNKNYLAWYQQKPGQPPKLLIYQASTRQSGVPDRFSGSGSGTDFTLTISSLQAEDVAVYYCHQYYGHPPTFGGGTKVEIK
With B8, the values for the binding result in assay [1] and in assay [2] were “binds” and “no binding”, respectively.

B9: MAdCAM Antibody Table 1 Clone 48 (scFv)
scFv: EVQLLESGGGLVQPGGSLRLSCAASGFTFSDHGMHWVRQAPGKGLEWVSVIYGGESTYYADSVKGRFTISRDNSKNTLYLQMNSLRAEDTAVYYCARDPAVAGGGIFDYWGQGTLVTVSSGGGGSGGGGSGGGGSGGGGSDIQMTQSPSSLSASVGDRVTITCRASQGISNYLAWYQQKPGKAPKLLIYDASNLETGVPSRFSGSGSGTDFTLTISSLQPEDFATYYCQQSYSTCYTFGQGTKLEIK
As to B9, the binding result in assay [1] is “binds”; in assay [2] it was “no binding”.

B10: MAdCAM Antibody Table 1 Clone 47 (scFv)
scFv: EVQLLESGGGLVQPGGSLRLSCAASGFSFSDYGMHWVRQAPGKGLEWVSAISGSGGSTYYADSVKGRFTISRDNSKNTLYLQMNSLRAEDTAVYYCARDGGWQPAAILDYWGQGTLVTVSSGGGGSGGGGSGGGGSGGGGSDIQMTQSPSSLSASVGDRVTITCRASQGISNNLNWYQQKPGKAPKLLIYDASNLETGVPSRFSGSGSGTDFTLTISSLQPEDFATYYCQQSYSTPLTFGGGTKVEIK
On to B10, for which the figures for the binding result in assay [1] and in assay [2] were “binds” and “no binding”, respectively.

B11: MAdCAM Antibody Table 1 Clone 50 (scFv)
scFv: QVQLVQSGAEVKKPGASVKVSCKASGYTFTSYDINWVRQAPGQGLEWMGWINPNSGTTGYAQKFQGRVTMTRDTSTSTVYMELSSLRSEDTAVYYCARSPYYYYGMDVWGQGTTVTVSSGGGGSGGGGSGGGGSGGGGSDIQMTQSPSSLSASVGDRVTITCRASHFISRWVAWYQQKPGKAPKLLIYAASTLQSGVPSRFSGSGSGTDFTLTISSLQPEDFATYYCQQSYSGISFGPGTKVDIK
For B11, the binding result in assay [1] was “binds”; in assay [2], “no binding”.

B12: MAdCAM Antibody Table 1 Clone 43 (scFv)
scFv: EVQLLESGGGLVQPGGSLRLSCAASGFTFDDFAMHWVRQAPGKGLEWVSGISGNGDSRYYADSVKGRFTISRDNSKNTLYLQMNSLRAEDTAVYYCARDASYGGNYGMDVWGQGTTVTVSSGGGGSGGGGSGGGGSGGGGSDIQMTQSPSSLSASVGDRVTITCQASQDIRNYLNWYQQKPGKAPKLLIYKASTLESGVPSRFSGSGSGTDFTLTISSLQPEDFATYYCQQANSFPLTFGPGTKVDIK
For the molecule B12, the binding result in assay [1] is “binds”; in assay [2] it was “no binding”.

B13: MAdCAM Antibody Table 1 Clone 56 (scFv)
scFv: EVQLLESGGGLVQPGGSLRLSCAASGFTFDDYAMHWVRQAPGKGLEWVSAISGGGEDTYYADSVKGRFTISRDNSKNTLYLQMNSLRAEDTAVYYCARDASYGGNYGMDVWGQGTTVTVSSGGGGSGGGGSGGGGSGGGGSDIQMTQSPSSLSASVGDRVTITCQASQDIRNYLNWYQQKPGKAPKLLIYKASSLESGVPSRFSGSGSGTDFTLTISSLQPEDFATYYCQQANSYPVTFGGGTKVEIK
With B13, the binding result in assay [1] was “binds”; in assay [2], “no binding”.

B14: MAdCAM Antibody Table 1 Clone 53 (scFv)
scFv: QVQLVQSGAEVKKPGASVKVSCKASGYTFTSYDINWVRQAPGQGLEWMGWMNPNSGNTGYAQKFQGRVTMTRDTSTSTVYMELSSLRSEDTAVYYCAKDSDYSNLLWDYWGQGTLVTVSSGGGGSGGGGSGGGGSGGGGSDIQMTQSPSSLSASVGDRVTITCRASQDITNDLGWYQQKPGKAPKLLIYQASSLESGVPSRFSGSGSGTDFTLTISSLQPEDFATYYCQQSYTIPLTFGQGTKVEIK
For the molecule B14, the results for the binding result in assay [1] and in assay [2] were “binds” and “no binding”, respectively.

B15: MAdCAM Antibody Table 1 Clone 52 (scFv)
scFv: EVQLLESGGGLVQPGGSLRLSCAASGFTFSNSDMNWVRQAPGKGLEWVAHIWNDGSQKYYADSVKGRFTISRDNSKNTLYLQMNSLRAEDTAVYYCARDRTDPGYSSAMDVWGQGTTVTVSSGGGGSGGGGSGGGGSGGGGSDIQMTQSPSSLSASVGDRVTITCRASQDIRNYLGWYQQKPGKAPKLLIYDASSLETGVPSRFSGSGSGTDFTLTISSLQPEDFATYYCQQATSLPLTFGGGTKVEIK
As to B15, the binding result in assay [1] was “binds”; in assay [2] it was “no binding”.

B16: MAdCAM Antibody Table 1 Clone 40 (scFv)
scFv: QVQLVQSGAEVKKPGASVKVSCKASGYTFTSYGISWVRQAPGQGLEWMGIINPRGGSTIFAQKFQGRVTMTRDTSTSTVYMELSSLRSEDTAVYYCARGTRSSGWYGWFDPWGQGTLVTVSSGGGGSGGGGSGGGGSGGGGSDIQMTQSPSSLSASVGDRVTITCRASQGIGNWLAWYQQKPGKAPKLLIYAASNLETGVPSRFSGSGSGTDFTLTISSLQPEDFATYYCQQIHSYPLTFGGGTKVEIK
As to B16, the binding result in assay [1] is listed as “binds”; in assay [2], “no binding”.
